Signal relative to the N-terminal construct and fold reduction of binding against wild-type PY data for one substance are collected here from patent publication US6034212.

Test [1] addresses GST-… fusion protein (mouse). The experiment in a line: Western ligand blot, reference GST-WBP-1 (1-74).
Test [2] deals with GST-…. The test is described as follows: blot of mutant ligand proteins probed with 32P-labelled GST-WW-YAP.

The substance “GST-WW-YAP fusion protein (WW domain of human YAP in pGEX-2TK)” gave a signal relative to the N-terminal construct in test [1] of 80%. The substance also gave a fold reduction of binding against wild-type PY in test [2] of 2 fold.
